The supplement of paper PMC10567573

B1: LCOR (parent)
chain: YKVKERLGTLKNPPKKKMKLMSG
B2: FAM46D (parent)
chain: FQEAMTHLQHKLICTRKPEEIRGG

Variants of: B1
Assay: protein stability index of a GFP-peptide fusion (GPS, HEK-293T) (PSI 1-6); higher = more stable
Settings: c terminus: native
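Note: lentivirally expressed fusions sorted by FACS into six bins by GFP to DsRed ratio, PSI derived from sequencing read proportions per bin multiplied by bin number.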

Protein stability index of substitutions, site by site:
L7: D 2.56; E 2.04; F 1.5; G 3.22; H 1.84; I 2.14; K 1.98; M 1.37; N 2.53; P 1.55; Q 1.52; R 1.06; S 1.55; T 1.85; W 1.76; Y 1.53
G8: A 1.85; C 2.52; E 2.72; H 1.92; I 1.12; K 1.47; L 2.22; M 1.69; N 1.27; P 3.05; Q 3.21; R 1.4; S 1.76; T 2.16; V 2.33; Y 2.08
T9: A 1.96; C 2.2; D 2.17; E 1.53; G 1.23; H 2.33; I 1.5; K 2.06; L 3.4; M 2.39; N 2.45; Q 2.64; R 1.81; S 2.19; V 2.35; W 3.03; Y 2.22
L10: A 2.38; C 2.19; D 1.86; E 2.04; F 2.46; G 1.35; H 1.85; I 1.5; K 1.85; M 2.8; N 2.85; P 1.42; Q 1.52; R 2.23; S 1.85; T 2.52; V 2; W 2.42; Y 3.47
K11: A 3.29; C 2.02; D 1.76; E 1.69; G 3.44; H 1.79; I 3.65; M 3.04; N 2.29; Q 1.44; R 2.39; S 1.55; Y 2.48
N12: A 2.54; C 3.3; D 1.65; E 1.61; F 1.86; G 2.84; H 2.7; I 1.09; K 2.25; M 1.26; P 2.33; Q 2.6; R 3.15; S 1.72; T 3.6; V 1.86; W 2.83; Y 2.39
P13: A 2.68; C 2.03; D 1.93; E 2.94; F 2.63; G 1.5; H 2.49; I 2.27; K 3.2; L 2.02; N 2.05; Q 1.76; R 2.2; S 2.09; T 2.42; V 1.98
P14: A 1.42; C 2.14; D 1.71; E 1.37; G 3.94; H 2.87; I 1.78; K 1.77; L 1.32; M 3.42; N 1.49; S 3.59; T 1.63; W 2.41; Y 3.03
K15: D 2.06; E 2.66; H 2.34; I 3.63; L 1.58; N 2.34; P 2.99; Q 1.84; R 2.04; S 2.17; W 3.79
K16: C 1.15; D 2.35; E 2.83; F 1.45; G 2.57; H 1.49; I 1.39; L 2.34; M 1.49; N 1.76; P 1.93; Q 2.17; R 2.55; S 1.46; T 1.78; V 1.87; W 2.45; Y 2.98
K17: A 2.41; D 1.83; E 2.63; F 2.02; G 1.43; H 2.02; I 2.58; L 1.34; M 1.94; N 1.83; P 2.59; Q 2.96; R 2.22; S 1.42; T 1.76; V 1.68; W 1.83; Y 2.25
M18: A 2.49; C 1.82; D 3; E 2.24; F 1.98; G 2.59; H 2.03; I 2.02; L 1.81; N 2.06; P 2.03; Q 2.23; R 2.2; S 1.52; T 1.36; V 2; W 1.36; Y 2.43
K19: A 3.4; C 2.15; D 2.64; E 2.5; G 1.34; H 2.51; I 3.48; N 2.96; P 2.26; Q 3.03; T 2.38; V 2.77; W 2.52
L20: A 3.14; C 1.8; D 3.66; E 3.99; F 2.55; G 3.74; H 3.95; I 2.9; K 3.8; M 1.55; N 2.43; P 3.94; Q 3.83; S 3.02; T 2.32; V 2.81; W 2.95; Y 2.18
M21: C 4.02; F 2.78; G 2.91; H 3.33; I 1.92; L 3.01; N 5.95; P 2.56; S 1.45; T 1.76; W 2.82; Y 2.34
S22: A 2.85; C 2.14; D 3.1; E 2.58; F 2.44; H 2.95; I 2.45; K 3.02; L 2.19; M 1.61; N 2.11; P 2.45; T 2.42; V 2.09; Y 2.65
G23: A 2.29; C 2.57; D 4.01; E 3.19; F 2.15; H 3.01; I 2.4; K 3.41; L 2.75; M 3.85; N 2.43; P 3.18; Q 2.78; R 2.88; S 3; T 3; V 2.11; W 2.19; Y 2.57

Variants of: B2
Assay: as above
Settings: c terminus: a fixed tail appended

Protein stability index of substitutions, site by site:
F1: A 4.16; C 3.98; D 4.81; E 5.26; G 4.4; H 4.3; I 3.29; K 3.61; L 2.93; M 3.67; N 4.29; P 4.01; Q 3.85; R 3.82; S 3.49; T 3.96; V 4.64; W 3.28; Y 3.2
Q2: A 2.91; C 1.76; D 4.05; E 4.25; F 1.6; G 3.01; H 2.02; I 2.01; K 3.46; L 2.32; M 2.28; N 3.38; P 2.53; R 4.08; S 2.74; T 2.1; V 1.56; W 1.67; Y 2.19
E3: A 1.82; C 1.64; D 2.17; F 1.48; G 2.98; H 2.21; I 2.22; K 2.17; L 1.9; M 1.62; N 2.55; P 2.8; Q 2.52; R 1.82; S 1.91; T 2.54; V 2.08; Y 2.3
A4: C 2.61; D 2.8; E 3.28; F 1.82; G 2.74; H 2.95
